Publication doi:10.1101/2021.07.15.452591 (bioRxiv, 2021)
Where a chain is given by its changes, count along the chain named. Names and notes keep the numbering of the source.

B1: 2-aminomuconic 6-semialdehyde dehydrogenase (AmnC), wild type (enzyme, Pseudomonas sp. AP-3, UniProt Q9KWS5 1-491, looked up)
chain: MKQYRNFVDGKWVESSKTFQDVTPIDGSVVAVVHEADRDLVDAAVKAGHRALEGEWGRTTAAQRVDWLRRIANEMERRQQDFLDAEMADTGKPLSMAATIDIPRGIANFRNFADILATAPVDSHRLDLPDGAYALNYAARKPLGVVGVISPWNLPLLLLTWKVAPALACGNAVVVKPSEDTPGTATLLAEVMEAVGIPPGVFNLVHGFGPNSAGEFISQHPDISAITFTGESKTGSTIMRAAAEGVKPVSFELGGKNAAVIFADCDFEKMLDGMMRALFLNSGQVCLCSERVYVERPIFDRFCVALAERIKALKVDWPHETDTQMGPLISSKHRDKVLSYFELARQEGATFLAGGGVPRFGDERDNGAWVEPTVIAGLSDDARVVREEIFGPICHVTPFDSESEVIRRANDTRYGLAATIWTTNLSRAHRVSELMRVGISWVNTWFLRDLRTPFGGAGLSGIGREGGMHSLNFYSELTNVCVRIDKESPDV
B2: AmnC ΔOD2 (S123G, H124G, L425A) (enzyme, Pseudomonas sp. AP-3, UniProt Q9KWS5 1-491, looked up)
chain: B1 chain with S123G, H124G, L425A
B3: AmnC ΔOD1 (Δ124-138 and Δ477-491) (enzyme, Pseudomonas sp. AP-3, UniProt Q9KWS5 1-476, looked up)
chain: MKQYRNFVDGKWVESSKTFQDVTPIDGSVVAVVHEADRDLVDAAVKAGHRALEGEWGRTTAAQRVDWLRRIANEMERRQQDFLDAEMADTGKPLSMAATIDIPRGIANFRNFADILATAPVDSARKPLGVVGVISPWNLPLLLLTWKVAPALACGNAVVVKPSEDTPGTATLLAEVMEAVGIPPGVFNLVHGFGPNSAGEFISQHPDISAITFTGESKTGSTIMRAAAEGVKPVSFELGGKNAAVIFADCDFEKMLDGMMRALFLNSGQVCLCSERVYVERPIFDRFCVALAERIKALKVDWPHETDTQMGPLISSKHRDKVLSYFELARQEGATFLAGGGVPRFGDERDNGAWVEPTVIAGLSDDARVVREEIFGPICHVTPFDSESEVIRRANDTRYGLAATIWTTNLSRAHRVSELMRVGISWVNTWFLRDLRTPFGGAGLSGIGREGGMHSLNFYSE

Assays:
crystal structure = target: the molecule itself; assay: crystal structure
SEC = target: the molecule itself; assay: SEC
dynamic light scattering = target: the molecule itself; assay: dynamic light scattering

Protein | stoichiometry N (crystal structure) | stoichiometry N (SEC) | stoichiometry N (dynamic light scattering)
B1 | 4 |  | 
B2 |  | ~2 | 2
B3 |  | ~2 | 2
